Reference: article PMC2193908 (The Journal of Experimental Medicine, 2003)
Read-outs that look alike come from different tables or passages of the source. Each block holds one molecule with its values, some of them ahead of it.

Assays:
Test in all cases: radioligand binding
[1] = biological target: CXCR3-A (classic CXC chemokine receptor 3) (human) (UniProt P49682)
[2] = biological target: CXCR3-B (alternatively spliced variant of CXCR3) (human) (UniProt P49682)
[3] = biological target: CXCR3-B on the renal carcinoma ACHN cell line (human (endogenous in ACHN)) (UniProt P49682)
[4] = biological target: CXCR3-B (alternatively spliced variant of CXCR3) (human) (UniProt P49682); remark: listed apart in the source
[5] = biological target: T1, CXCR3-A (classic CXC chemokine receptor 3) (human, UniProt P49682-1 1-368)
T1 sequence (looked up): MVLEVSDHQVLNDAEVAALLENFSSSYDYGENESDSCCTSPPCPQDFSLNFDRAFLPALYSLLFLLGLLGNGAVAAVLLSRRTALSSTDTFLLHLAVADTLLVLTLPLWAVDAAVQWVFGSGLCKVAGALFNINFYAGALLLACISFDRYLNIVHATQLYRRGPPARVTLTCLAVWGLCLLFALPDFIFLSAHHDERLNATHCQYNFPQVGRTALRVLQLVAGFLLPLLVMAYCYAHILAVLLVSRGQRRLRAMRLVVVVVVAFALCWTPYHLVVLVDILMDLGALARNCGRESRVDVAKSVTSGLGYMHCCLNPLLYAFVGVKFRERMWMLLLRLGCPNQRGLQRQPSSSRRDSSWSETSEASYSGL

[6] = biological target: T2, CXCR3-B (alternatively spliced variant of CXCR3) (human, UniProt P49682-2 1-415)
T2 sequence (looked up): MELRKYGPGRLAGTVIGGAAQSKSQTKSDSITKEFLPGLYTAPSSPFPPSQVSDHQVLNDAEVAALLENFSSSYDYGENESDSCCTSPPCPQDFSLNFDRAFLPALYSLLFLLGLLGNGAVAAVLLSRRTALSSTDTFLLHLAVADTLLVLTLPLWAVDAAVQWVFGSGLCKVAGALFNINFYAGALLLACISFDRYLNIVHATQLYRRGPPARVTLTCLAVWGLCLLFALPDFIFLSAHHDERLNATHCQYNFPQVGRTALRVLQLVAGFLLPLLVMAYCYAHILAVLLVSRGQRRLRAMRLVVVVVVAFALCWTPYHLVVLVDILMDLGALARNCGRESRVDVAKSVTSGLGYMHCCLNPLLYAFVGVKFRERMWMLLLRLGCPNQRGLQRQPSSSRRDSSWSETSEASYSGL

[7] = biological target: T3, CXCR3-B on the renal carcinoma ACHN cell line (human (endogenous in ACHN), UniProt P49682-2 1-415)
T3 sequence (looked up): T2 sequence (looked up)

IC50 [1]: 448 nM | IC50 [2]: 7.46 nM | IC50 [3]: 6.83 nM | IC50 [4]: 1.85 nM
Molecule: CXCL4/PF4 (platelet factor 4) (ligand)

IC50 [5]: 33 ± 24 nM | IC50 [6]: 133 ± 46.5 nM | IC50 [7]: 88.5 ± 69.3 nM
B1: CXCL9/Mig (ligand, human, UniProt Q07325 23-125, looked up)
chain: TPVVRKGRCSCISTNQGTIHLQSLKDLKQFAPSPSCEKIEIIATLKNGVQTCLNPDSADVKELIKKWEKQVSQKKKQKNGKKHQKKKVLKVRKSQRSRQKKTT

IC50 [5]: 0.41 ± 0.14 nM | IC50 [6]: 32 ± 10.2 nM | IC50 [7]: 49.6 ± 11.3 nM
B2: CXCL11/I-TAC (ligand, human, UniProt O14625 22-94, looked up)
chain: FPMFKRGRCLCIGPGVKAVKVADIEKASIMYPSNNCDKIEVIITLKENKGQRCLNPKSKQARLIIKKVERKNF
